According to patent US20230140293A1:

Legend:
Assay in all cases: cell-based or functional assay
[1] = target: CH0505TF.G458Y Env, Env-pseudotyped virus produced in 293S GnTI- cells (Man5-enriched) (HIV-1)
[2] = target: HIV-1 Env 426c.TM4 (S278R.G471S.N460D.N463D), Env-pseudotyped virus produced in 293S GnTI- cells (Man5-enriched) (HIV-1 clade C strain 426c)
[3] = target: HIV-1 Env 426c.DM (N460D.N463D), Env-pseudotyped virus produced in 293S GnTI- cells (Man5-enriched) (HIV-1 clade C strain 426c)
[4] = target: HIV-1 Env 426c, Env-pseudotyped virus produced in 293T cells (HIV-1 clade C strain 426c)
[5] = target: CH0505.w4.3 Env, Env-pseudotyped virus produced in 293T cells (HIV-1)
[6] = target: HIV-1 Env 426c.SM (N276D), Env-pseudotyped virus produced in 293T cells (HIV-1 clade C strain 426c)
[7] = target: HIV-1 Env 426c.TM4 (S278R.G471S.N460D.N463D), Env-pseudotyped virus produced in 293T cells (HIV-1 clade C strain 426c)
[8] = target: HIV-1 Env 426c.SM (N276D), Env-pseudotyped virus produced in 293S GnTI- cells (Man5-enriched) (HIV-1 clade C strain 426c)
[9] = target: CH0505TF.gly3.197 Env, Env-pseudotyped virus produced in 293T cells (HIV-1)
[10] = target: CH0505TF.gly3.276 Env, Env-pseudotyped virus produced in 293S GnTI- cells (Man5-enriched) (HIV-1)
[11] = target: CH0505TF.gly4 Env, Env-pseudotyped virus produced in 293S GnTI- cells (Man5-enriched) (HIV-1)
[12] = target: HIV-1 426c.DM (N460D/N463D) Env on Env-pseudotyped virus produced in 293s/GnTI-/- cells (Man5-enrichment) (HIV-1)
[13] = target: HIV-1 clade C strain 426c Env on Env-pseudotyped virus produced in 293s/GnTI-/- cells (Man5-enrichment) (HIV-1)
[14] = target: HIV-1 clade C strain 426c Env on Env-pseudotyped virus produced in 293T cells (HIV-1)
[15] = target: CH0505TF.gly4 Env, Env-pseudotyped virus produced in 293T cells (HIV-1)
[16] = target: HIV-1 426c.SM (N276D) Env on Env-pseudotyped virus produced in 293T cells (HIV-1)
[17] = target: CH0505TF.gly3.461 Env, Env-pseudotyped virus produced in 293S GnTI- cells (Man5-enriched) (HIV-1)
[18] = target: CH0505TF.gly3.197 Env, Env-pseudotyped virus produced in 293S GnTI- cells (Man5-enriched) (HIV-1)
[19] = target: HIV-1 426c.DM (N460D/N463D) Env on Env-pseudotyped virus produced in 293T cells (HIV-1)
[20] = target: CH0505TF Env, Env-pseudotyped virus produced in 293T cells (HIV-1)
[21] = target: HIV-1 426c.SM (N276D) Env on Env-pseudotyped virus produced in 293s/GnTI-/- cells (Man5-enrichment) (HIV-1)
[22] = target: CH0505TF.gly3.276 Env, Env-pseudotyped virus produced in 293T cells (HIV-1)
[23] = target: HIV-1 Env 426c.TM (N276D.N460D.N463D), Env-pseudotyped virus produced in 293T cells (HIV-1 clade C strain 426c)
[24] = target: HIV-1 426c.TM (N276D/N460D/N463D) Env on Env-pseudotyped virus produced in 293T cells (HIV-1)
[25] = target: CH0505TF.G458Y Env, Env-pseudotyped virus produced in 293T cells (HIV-1)
[26] = target: HIV-1 Env 426c, Env-pseudotyped virus produced in 293S GnTI- cells (Man5-enriched) (HIV-1 clade C strain 426c)
[27] = target: HIV-1 426c.TM (N276D/N460D/N463D) Env on Env-pseudotyped virus produced in 293s/GnTI-/- cells (Man5-enrichment) (HIV-1)
[28] = target: CH0505TF.gly3.461 Env, Env-pseudotyped virus produced in 293T cells (HIV-1)
[29] = target: CH0505TF Env, Env-pseudotyped virus produced in 293S GnTI- cells (Man5-enriched) (HIV-1)
[30] = target: HIV-1 Env 426c.DM (N460D.N463D), Env-pseudotyped virus produced in 293T cells (HIV-1 clade C strain 426c)
[31] = target: HIV-1 Env 426c.TM (N276D.N460D.N463D), Env-pseudotyped virus produced in 293S GnTI- cells (Man5-enriched) (HIV-1 clade C strain 426c)

Substance | IC50 (µg/ml) in TZM-bl [1] [µg/mL] | IC50 (µg/ml) in TZM-bl [2] [µg/mL] | IC50 (µg/ml) in TZM-bl [3] [µg/mL] | IC50 (µg/ml) in TZM-bl [4] [µg/mL] | IC50 (µg/ml) in TZM-bl [5] [µg/mL] | IC50 (µg/ml) in TZM-bl [6] [µg/mL] | IC50 (µg/ml) in TZM-bl [7] [µg/mL] | IC50 (µg/ml) in TZM-bl [8] [µg/mL] | IC50 (µg/ml) in TZM-bl [9] [µg/mL] | IC50 (µg/ml) in TZM-bl [10] [µg/mL] | IC50 (µg/ml) in TZM-bl [11] [µg/mL] | ID50/IC50 in TZM-bl [12] [µg/mL] | ID50/IC50 in TZM-bl [13] [µg/mL] | ID50/IC50 in TZM-bl [14] [µg/mL] | IC50 (µg/ml) in TZM-bl [15] [µg/mL] | ID50/IC50 in TZM-bl [16] [µg/mL] | IC50 (µg/ml) in TZM-bl [17] [µg/mL] | IC50 (µg/ml) in TZM-bl [18] [µg/mL] | ID50/IC50 in TZM-bl [19] [µg/mL] | IC50 (µg/ml) in TZM-bl [20] [µg/mL] | other results
3074 (antibody) | > 25 | > 25 | > 25 | > 25 | 0.02 | > 25 | > 25 | 23 | > 25 | 4.8 | 5.6 | > 25 | > 25 | > 25 | 7.2 | > 25 | 10.2 | > 25 | > 25 | > 25 | ID50/IC50 in TZM-bl [21]: 23 µg/mL; IC50 (µg/ml) in TZM-bl [22]: 14.1 µg/mL; IC50 (µg/ml) in TZM-bl [23]: > 25 µg/mL; ID50/IC50 in TZM-bl [24]: > 25 µg/mL; IC50 (µg/ml) in TZM-bl [25]: 9.4 µg/mL; IC50 (µg/ml) in TZM-bl [26]: > 25 µg/mL; ID50/IC50 in TZM-bl [27]: > 25 µg/mL; IC50 (µg/ml) in TZM-bl [28]: 7.3 µg/mL; IC50 (µg/ml) in TZM-bl [29]: > 25 µg/mL; IC50 (µg/ml) in TZM-bl [30]: > 25 µg/mL; IC50 (µg/ml) in TZM-bl [31]: > 25 µg/mL
3869 (antibody) | > 25 | > 25 | > 25 | > 25 | 3.1 | > 25 | > 25 | > 25 | > 25 | > 25 | > 25 | > 25 | > 25 | > 25 | > 25 | > 25 | > 25 | > 25 | > 25 | > 25 | ID50/IC50 in TZM-bl [21]: > 25 µg/mL; IC50 (µg/ml) in TZM-bl [22]: > 25 µg/mL; IC50 (µg/ml) in TZM-bl [23]: > 25 µg/mL; ID50/IC50 in TZM-bl [24]: > 25 µg/mL; IC50 (µg/ml) in TZM-bl [25]: > 25 µg/mL; IC50 (µg/ml) in TZM-bl [26]: > 25 µg/mL; ID50/IC50 in TZM-bl [27]: > 25 µg/mL; IC50 (µg/ml) in TZM-bl [28]: > 25 µg/mL; IC50 (µg/ml) in TZM-bl [29]: > 25 µg/mL; IC50 (µg/ml) in TZM-bl [30]: > 25 µg/mL; IC50 (µg/ml) in TZM-bl [31]: > 25 µg/mL
